The target in the test is GLuc1-ALIX (UniProt Q8WUM4). The experiment in a line: protein-fragment complementation assay (split Gaussia luciferase, GLuc2 bait / GLuc1 prey). As to conditions: parent: est. 7.4; read off a plot.
Sequence of GLuc1-ALIX (Q8WUM4 whole entry, the tested form may be a part): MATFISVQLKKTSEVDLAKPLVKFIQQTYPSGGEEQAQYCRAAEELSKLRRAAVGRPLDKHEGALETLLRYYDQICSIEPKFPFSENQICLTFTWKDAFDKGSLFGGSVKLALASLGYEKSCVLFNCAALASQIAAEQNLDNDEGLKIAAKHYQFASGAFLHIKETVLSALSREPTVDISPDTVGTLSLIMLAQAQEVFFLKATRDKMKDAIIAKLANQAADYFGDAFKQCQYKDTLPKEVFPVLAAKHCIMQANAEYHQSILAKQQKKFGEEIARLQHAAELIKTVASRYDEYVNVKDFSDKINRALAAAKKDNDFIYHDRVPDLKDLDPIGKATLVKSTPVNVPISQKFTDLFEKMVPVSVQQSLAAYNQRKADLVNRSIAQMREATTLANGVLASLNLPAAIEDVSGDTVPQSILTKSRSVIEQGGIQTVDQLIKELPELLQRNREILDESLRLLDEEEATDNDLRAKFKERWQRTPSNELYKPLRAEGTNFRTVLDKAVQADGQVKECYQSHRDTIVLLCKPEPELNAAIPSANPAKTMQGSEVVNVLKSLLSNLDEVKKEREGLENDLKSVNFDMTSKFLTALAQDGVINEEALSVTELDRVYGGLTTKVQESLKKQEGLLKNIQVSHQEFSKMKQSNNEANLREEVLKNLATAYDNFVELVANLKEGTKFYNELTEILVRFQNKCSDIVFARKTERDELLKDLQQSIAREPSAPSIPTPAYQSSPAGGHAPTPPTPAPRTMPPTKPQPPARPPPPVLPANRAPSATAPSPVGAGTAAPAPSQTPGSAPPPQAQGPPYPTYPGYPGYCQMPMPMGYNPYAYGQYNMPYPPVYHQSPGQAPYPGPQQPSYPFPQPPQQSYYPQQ

Consider GLuc2-pX Y800A; K801A; E802A; L803A, for which the response (Log2 normalized LU) was determined as 1.5.

The record behind these values is PMC9410543.
